Kd data for eight molecules are collected here from patent US20250163161A1 (TECHNISCHE UNIVERSIT T DARMSTADT, published 2025).

What all share (assay): BLI
(In general: BLI is a label-free optical method that tracks binding on a fibre tip over time.)

Experiment [1] deals with T1, programmed death-ligand 1 (PD-L1), soluble, as used in BLI (UniProt Q9NZQ7 19-238).
T1 construct: extracellular domain; also called PD-L1-ECD

Experiment [2] concerns the target T2, CD16 (UniProt P08637 17-208).
T2 construct: also called Fcγ-receptor IIIa

The target in experiment [3] is T3, epidermal growth factor receptor (EGFR), soluble, as used in BLI (UniProt P00533 25-645).
T3 construct: extracellular domain; also called EGFR-ECD

Experiment [4] deals with T1, programmed death-ligand 1 (PD-L1), …. This is another data set of the same source.
Experiment [5] deals with T2, CD16. This is another data set of the same source.
For experiment [6], the target named is T3, epidermal growth factor receptor …. The source holds these as a separate data set.

Like-named read-outs stand apart in the source and are kept apart here.

T2 sequence (P08637 17-208): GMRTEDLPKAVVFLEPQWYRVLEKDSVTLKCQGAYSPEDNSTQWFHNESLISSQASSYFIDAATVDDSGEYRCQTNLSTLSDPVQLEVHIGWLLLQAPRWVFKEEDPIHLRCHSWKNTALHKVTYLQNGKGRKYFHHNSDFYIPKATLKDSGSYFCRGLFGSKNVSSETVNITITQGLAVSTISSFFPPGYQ
T1 sequence (Q9NZQ7 19-238): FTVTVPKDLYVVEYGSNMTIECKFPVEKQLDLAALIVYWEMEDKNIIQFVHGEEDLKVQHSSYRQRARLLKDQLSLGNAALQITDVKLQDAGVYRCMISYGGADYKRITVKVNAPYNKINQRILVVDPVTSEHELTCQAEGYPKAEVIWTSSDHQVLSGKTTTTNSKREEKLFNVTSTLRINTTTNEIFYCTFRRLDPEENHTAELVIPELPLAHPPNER

B1: HC16/ICI2 KiH variant: HCP-LCE on one side and CD16 binder HC16 on the other, paired with the HCP-LCE light chain (bispecific antibody)
VH 1: AVTLDESGGGLQTPGGALSLVCKASGFDFSSYDMAWVRQAPGKGLEWVAGIKSNGPWTNYGAAVKGRATISRDNGQSTVRLQLNNLRAEDTAIYYCAKPGAGYVGWDAAGTIDSWGHGTEVIVSS
VH 2: AVTLDESGGGLQTPGGTLSLVCRASGFSFSSSDMFWVRQAPGKGLEYVAQISKDGSGKYYGAAVKGRATISRDNGQSTVRLQLNNLRAEDTGIYFCAKSGRGYVTAGRIDTWGHGTEVIVSS
light: ALTQPSSVSANLGETVKITCSGGAYSDCGWYQQKSPGSAPVTVIYYNDKRPSDIPSRFSGSTFGSTATLTITGVQAEDEAVYYCGGYDSRTGYVGVFGAGTTLTVLGQPKANPTVTLFPPSSEELQANKATLVCLISDFYPGAVTVAWKADGSPVKAGVETTKPSKQSNNKYAASSYLSLTPEQWKSHRSYSCQVTHEGSTVEKTVAPTECS
Take B1: the Kd came out at 57.7 nM in experiment [1], 21.9 nM with CD16 [2] and 320 nM in experiment [3].

B2: one-armed ICI2_outer and NKE14_inner variant V3 (bispecific antibody, human IgG1, lambda, L234A L235A)
heavy 1: AVTLDESGGGLQTPGGALSLVCKASGFDFSSYDMAWVRQAPGKGLEWVAGIKSNGPWTNYGAAVKGRATISRDNGQSTVRLQLNNLRAEDTAIYYCAKPGAGYVGWDAAGTIDSWGHGTEVIVSSASTKGPSVFPLAPSSKSTSGGTAALGCLVKDYFPEPVTVSWNSGALTSGVHTFPAVLQSSGLYSLSSVVTVPSSSLGTQTYICNVNHKPSNTKVDKRVEPKSCDGGGGSGGGGSAVTLDESGGGLQTPGGGLSLVCKGSGFTFSSYNMGWVRQAPGKGLEFVASIDDDGSFTHYGAAVKGRATISRDNGQSTVRLQLNNLRVEDSGIYYCAKSSINGYRCSGGLCVPYITGNIDAWGHGTEVIVSSASTKGPSVFPLAPSSKSTSGGTAALGCLVKDYFPEPVTVSWNSGALTSGVHTFPAVLQSSGLYSLSSVVTVPSSSLGTQTYICNVNHKPSNTKVDKRVEPKSCDKTHTCPPCPAPEAAGGPSVFLFPPKPKDTLMISRTPEVTCVVVDVSHEDPEVKFNWYVDGVEVHNAKTKPREEQYNSTYRVVSVLTVLHQDWLNGKEYKCKVSNKALPAPIEKTISKAKGQPREPQVYTLPPSREEMTKNQVSLWCLVKGFYPSDIAVEWESNGQPENNYKTTPPVLDSDGSFFLYSKLTVDKSRWQQGNVFSCSVMHEALHNHYTQKSLSLSPG
heavy 2: EPKSCDKTHTCPPCPAPEAAGGPSVFLFPPKPKDTLMISRTPEVTCVVVDVSHEDPEVKFNWYVDGVEVHNAKTKPREEQYNSTYRVVSVLTVLHQDWLNGKEYKCKVSNKALPAPIEKTISKAKGQPREPQVYTLPPSREEMTKNQVSLSCAVKGFYPSDIAVEWESNGQPENNYKTTPPVLDSDGSFFLVSKLTVDKSRWQQGNVFSCSVMHEALHNRFTQKSLSLSPG
light: ALTQPSSVSANLGETVKITCSGGAYSDCGWYQQKSPGSAPVTVIYYNDKRPSDIPSRFSGSTFGSTATLTITGVQAEDEAVYYCGGYDSRTGYVGVFGAGTTLTVLGQPKANPTVTLFPPSSEELQANKATLVCLISDFYPGAVTVAWKADGSPVKAGVETTKPSKQSNNKYAASSYLSLTPEQWKSHRSYSCQVTHEGSTVEKTVAPTECS
notes: also called oaICI2_outer
With B2, the Kd was 115 nM in experiment [4], 346 nM with CD16 [5] and 763 nM in experiment [6].

B3: ICI2_outer and NKE14_inner trispecific variant V2 (bispecific antibody, human IgG1, lambda, L234A L235A)
heavy: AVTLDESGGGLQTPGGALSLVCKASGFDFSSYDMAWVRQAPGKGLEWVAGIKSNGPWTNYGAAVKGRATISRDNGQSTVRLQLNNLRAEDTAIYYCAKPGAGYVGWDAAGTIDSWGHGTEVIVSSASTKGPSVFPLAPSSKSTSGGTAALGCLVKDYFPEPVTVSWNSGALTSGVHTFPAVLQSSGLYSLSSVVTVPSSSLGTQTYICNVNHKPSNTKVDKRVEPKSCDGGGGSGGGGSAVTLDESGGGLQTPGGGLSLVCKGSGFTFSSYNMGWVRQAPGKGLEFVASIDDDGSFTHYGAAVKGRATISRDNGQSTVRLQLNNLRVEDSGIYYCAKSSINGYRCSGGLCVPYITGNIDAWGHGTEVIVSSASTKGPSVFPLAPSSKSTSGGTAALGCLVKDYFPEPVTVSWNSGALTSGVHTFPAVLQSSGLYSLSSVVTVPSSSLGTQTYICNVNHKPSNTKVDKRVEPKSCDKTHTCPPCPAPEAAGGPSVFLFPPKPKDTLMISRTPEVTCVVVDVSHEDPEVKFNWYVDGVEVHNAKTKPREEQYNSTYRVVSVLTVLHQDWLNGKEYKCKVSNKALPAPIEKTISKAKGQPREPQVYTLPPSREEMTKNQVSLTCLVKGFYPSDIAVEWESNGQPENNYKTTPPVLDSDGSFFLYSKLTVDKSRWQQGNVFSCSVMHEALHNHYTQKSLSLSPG
light: ALTQPSSVSANLGETVKITCSGGAYSDCGWYQQKSPGSAPVTVIYYNDKRPSDIPSRFSGSTFGSTATLTITGVQAEDEAVYYCGGYDSRTGYVGVFGAGTTLTVLGQPKANPTVTLFPPSSEELQANKATLVCLISDFYPGAVTVAWKADGSPVKAGVETTKPSKQSNNKYAASSYLSLTPEQWKSHRSYSCQVTHEGSTVEKTVAPTECS
notes: Two Fabs on each side, common light chain LCE; also called ICI2_outer Fab
Regarding B3, the Kd is 97.6 nM in experiment [4], 382 nM in the experiment with CD16 [5] and 460 nM in experiment [6].

B4: NKE14_outer and ICI2_inner trispecific variant V4 (bispecific antibody, human IgG1, lambda, L234A L235A)
heavy: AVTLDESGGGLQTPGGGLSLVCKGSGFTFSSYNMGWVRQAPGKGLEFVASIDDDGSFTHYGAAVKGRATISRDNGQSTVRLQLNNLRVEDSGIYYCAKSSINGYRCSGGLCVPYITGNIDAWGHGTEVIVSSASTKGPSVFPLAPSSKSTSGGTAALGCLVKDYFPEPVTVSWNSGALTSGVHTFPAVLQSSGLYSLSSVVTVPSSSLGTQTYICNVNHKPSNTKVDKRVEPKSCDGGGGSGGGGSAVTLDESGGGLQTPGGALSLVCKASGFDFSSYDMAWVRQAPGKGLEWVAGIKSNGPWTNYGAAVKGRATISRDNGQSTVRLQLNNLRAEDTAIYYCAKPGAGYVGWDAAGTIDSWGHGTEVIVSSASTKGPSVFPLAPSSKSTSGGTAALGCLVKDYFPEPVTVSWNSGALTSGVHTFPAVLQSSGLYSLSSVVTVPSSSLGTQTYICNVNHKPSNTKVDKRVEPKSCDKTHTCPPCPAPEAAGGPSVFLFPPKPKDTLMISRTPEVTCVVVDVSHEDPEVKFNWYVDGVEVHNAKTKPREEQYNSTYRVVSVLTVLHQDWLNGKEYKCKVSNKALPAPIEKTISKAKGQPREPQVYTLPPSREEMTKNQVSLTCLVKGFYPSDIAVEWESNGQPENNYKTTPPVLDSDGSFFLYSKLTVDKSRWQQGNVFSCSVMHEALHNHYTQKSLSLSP
light: ALTQPSSVSANLGETVKITCSGGAYSDCGWYQQKSPGSAPVTVIYYNDKRPSDIPSRFSGSTFGSTATLTITGVQAEDEAVYYCGGYDSRTGYVGVFGAGTTLTVLGQPKANPTVTLFPPSSEELQANKATLVCLISDFYPGAVTVAWKADGSPVKAGVETTKPSKQSNNKYAASSYLSLTPEQWKSHRSYSCQVTHEGSTVEKTVAPTECS
notes: Two Fabs on each side, common light chain LCE; also called NKE14_outer Fab
Consider B4, for which the Kd in experiment [4] stood at 125 nM; in the experiment with CD16 [5], 302 nM; in experiment [6], 603 nM.

B5: NKE14 + LCE comparative mAb (CD16-binding antibody NKE14 heavy chain with LCE light chain) (antibody)
VH: AVTLDESGGGLQTPGGGLSLVCKGSGFTFSSYNMGWVRQAPGKGLEFVASIDDDGSFTHYGAAVKGRATISRDNGQSTVRLQLNNLRVEDSGIYYCAKSSINGYRCSGGLCVPYITGNIDAWGHGTEVIVSS
light: ALTQPSSVSANLGETVKITCSGGAYSDCGWYQQKSPGSAPVTVIYYNDKRPSDIPSRFSGSTFGSTATLTITGVQAEDEAVYYCGGYDSRTGYVGVFGAGTTLTVLGQPKANPTVTLFPPSSEELQANKATLVCLISDFYPGAVTVAWKADGSPVKAGVETTKPSKQSNNKYAASSYLSLTPEQWKSHRSYSCQVTHEGSTVEKTVAPTECS
notes: LCE is the HCP-LCE light chain
In turn, B5 gave a Kd with CD16 [5] of 151 nM. This counts as sub-micromolar.

B6: HC16_outer/ICI2_inner trispecific variant (full-length HC16_outer and ICI2_inner LALA construct) (bispecific antibody, human IgG1, lambda, L234A L235A)
heavy: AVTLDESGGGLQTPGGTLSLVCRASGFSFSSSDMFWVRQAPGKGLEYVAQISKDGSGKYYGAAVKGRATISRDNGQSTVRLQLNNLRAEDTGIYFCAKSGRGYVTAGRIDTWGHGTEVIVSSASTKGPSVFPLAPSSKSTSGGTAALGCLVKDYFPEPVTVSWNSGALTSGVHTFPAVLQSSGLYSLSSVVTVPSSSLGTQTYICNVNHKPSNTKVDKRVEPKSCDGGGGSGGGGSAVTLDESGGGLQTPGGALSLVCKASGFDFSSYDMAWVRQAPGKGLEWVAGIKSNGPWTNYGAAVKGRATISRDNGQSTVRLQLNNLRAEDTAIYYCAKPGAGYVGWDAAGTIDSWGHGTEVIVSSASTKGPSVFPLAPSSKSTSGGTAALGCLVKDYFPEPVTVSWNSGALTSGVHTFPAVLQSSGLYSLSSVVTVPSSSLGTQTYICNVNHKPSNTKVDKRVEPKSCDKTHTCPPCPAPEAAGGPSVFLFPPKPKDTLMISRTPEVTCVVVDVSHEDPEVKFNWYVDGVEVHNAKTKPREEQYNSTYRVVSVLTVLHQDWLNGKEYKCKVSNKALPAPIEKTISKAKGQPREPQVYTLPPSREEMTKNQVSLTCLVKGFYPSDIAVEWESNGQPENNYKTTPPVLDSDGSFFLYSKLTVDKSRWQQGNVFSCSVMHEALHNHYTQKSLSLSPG
light: ALTQPSSVSANLGETVKITCSGGAYSDCGWYQQKSPGSAPVTVIYYNDKRPSDIPSRFSGSTFGSTATLTITGVQAEDEAVYYCGGYDSRTGYVGVFGAGTTLTVLGQPKANPTVTLFPPSSEELQANKATLVCLISDFYPGAVTVAWKADGSPVKAGVETTKPSKQSNNKYAASSYLSLTPEQWKSHRSYSCQVTHEGSTVEKTVAPTECS
notes: Two Fabs on each side, common light chain LCE; also called HC16_outer/ICI2_inner LALA
Turning to B6, the results for the Kd (in experiment [1]; in the experiment with CD16 [2]; in experiment [3]) were 68 nM, 17 nM and 331 nM, respectively.

B7: Knob-into-Hole (KiH) trispecific variant V1: HCP-LCE on one side and heavy chain of CD16 binder NKE14, paired with the HCP-LCE light chain (bispecific antibody, human IgG1, lambda, L234A L235A)
heavy 1: AVTLDESGGGLQTPGGALSLVCKASGFDFSSYDMAWVRQAPGKGLEWVAGIKSNGPWTNYGAAVKGRATISRDNGQSTVRLQLNNLRAEDTAIYYCAKPGAGYVGWDAAGTIDSWGHGTEVIVSSASTKGPSVFPLAPSSKSTSGGTAALGCLVKDYFPEPVTVSWNSGALTSGVHTFPAVLQSSGLYSLSSVVTVPSSSLGTQTYICNVNHKPSNTKVDKRVEPKSCDKTHTCPPCPAPEAAGGPSVFLFPPKPKDTLMISRTPEVTCVVVDVSHEDPEVKFNWYVDGVEVHNAKTKPREEQYNSTYRVVSVLTVLHQDWLNGKEYKCKVSNKALPAPIEKTISKAKGQPREPQVYTLPPSREEMTKNQVSLWCLVKGFYPSDIAVEWESNGQPENNYKTTPPVLDSDGSFFLYSKLTVDKSRWQQGNVFSCSVMHEALHNHYTQKSLSLSPG
heavy 2: AVTLDESGGGLQTPGGGLSLVCKGSGFTFSSYNMGWVRQAPGKGLEFVASIDDDGSFTHYGAAVKGRATISRDNGQSTVRLQLNNLRVEDSGIYYCAKSSINGYRCSGGLCVPYITGNIDAWGHGTEVIVSSASTKGPSVFPLAPSSKSTSGGTAALGCLVKDYFPEPVTVSWNSGALTSGVHTFPAVLQSSGLYSLSSVVTVPSSSLGTQTYICNVNHKPSNTKVDKRVEPKSCDKTHTCPPCPAPEAAGGPSVFLFPPKPKDTLMISRTPEVTCVVVDVSHEDPEVKFNWYVDGVEVHNAKTKPREEQYNSTYRVVSVLTVLHQDWLNGKEYKCKVSNKALPAPIEKTISKAKGQPREPQVYTLPPSREEMTKNQVSLSCAVKGFYPSDIAVEWESNGQPENNYKTTPPVLDSDGSFFLVSKLTVDKSRWQQGNVFSCSVMHEALHNRFTQKSLSLSPG
light: ALTQPSSVSANLGETVKITCSGGAYSDCGWYQQKSPGSAPVTVIYYNDKRPSDIPSRFSGSTFGSTATLTITGVQAEDEAVYYCGGYDSRTGYVGVFGAGTTLTVLGQPKANPTVTLFPPSSEELQANKATLVCLISDFYPGAVTVAWKADGSPVKAGVETTKPSKQSNNKYAASSYLSLTPEQWKSHRSYSCQVTHEGSTVEKTVAPTECS
notes: Trispecific (EGFR, PD-L1, CD16)
For the molecule B7, the figures for the Kd (in experiment [4]; with CD16 [5]; in experiment [6]) were 104 nM, 277 nM and 570 nM, respectively.

B8: one-armed NKE14_outer and ICI2_inner variant V5 (bispecific antibody, human IgG1, lambda, L234A L235A)
heavy 1: AVTLDESGGGLQTPGGGLSLVCKGSGFTFSSYNMGWVRQAPGKGLEFVASIDDDGSFTHYGAAVKGRATISRDNGQSTVRLQLNNLRVEDSGIYYCAKSSINGYRCSGGLCVPYITGNIDAWGHGTEVIVSSASTKGPSVFPLAPSSKSTSGGTAALGCLVKDYFPEPVTVSWNSGALTSGVHTFPAVLQSSGLYSLSSVVTVPSSSLGTQTYICNVNHKPSNTKVDKRVEPKSCDGGGGSGGGGSAVTLDESGGGLQTPGGALSLVCKASGFDFSSYDMAWVRQAPGKGLEWVAGIKSNGPWTNYGAAVKGRATISRDNGQSTVRLQLNNLRAEDTAIYYCAKPGAGYVGWDAAGTIDSWGHGTEVIVSSASTKGPSVFPLAPSSKSTSGGTAALGCLVKDYFPEPVTVSWNSGALTSGVHTFPAVLQSSGLYSLSSVVTVPSSSLGTQTYICNVNHKPSNTKVDKRVEPKSCDKTHTCPPCPAPEAAGGPSVFLFPPKPKDTLMISRTPEVTCVVVDVSHEDPEVKFNWYVDGVEVHNAKTKPREEQYNSTYRVVSVLTVLHQDWLNGKEYKCKVSNKALPAPIEKTISKAKGQPREPQVYTLPPSREEMTKNQVSLWCLVKGFYPSDIAVEWESNGQPENNYKTTPPVLDSDGSFFLYSKLTVDKSRWQQGNVFSCSVMHEALHNHYTQKSLSLSPG
heavy 2: EPKSCDKTHTCPPCPAPEAAGGPSVFLFPPKPKDTLMISRTPEVTCVVVDVSHEDPEVKFNWYVDGVEVHNAKTKPREEQYNSTYRVVSVLTVLHQDWLNGKEYKCKVSNKALPAPIEKTISKAKGQPREPQVYTLPPSREEMTKNQVSLSCAVKGFYPSDIAVEWESNGQPENNYKTTPPVLDSDGSFFLVSKLTVDKSRWQQGNVFSCSVMHEALHNRFTQKSLSLSPG
light: ALTQPSSVSANLGETVKITCSGGAYSDCGWYQQKSPGSAPVTVIYYNDKRPSDIPSRFSGSTFGSTATLTITGVQAEDEAVYYCGGYDSRTGYVGVFGAGTTLTVLGQPKANPTVTLFPPSSEELQANKATLVCLISDFYPGAVTVAWKADGSPVKAGVETTKPSKQSNNKYAASSYLSLTPEQWKSHRSYSCQVTHEGSTVEKTVAPTECS
notes: also called oaNKE14_outer
For B8, the Kd came to 137 nM in experiment [4], 342 nM with CD16 [5] and 982 nM in experiment [6].

By Kd is commonly meant a measure of binding affinity in units of concentration.
